Values quoted from earlier work as cited in PMC4237619.
Where two headings read alike, the source gives them in different places. Blank lines part the entries; values can stand above or below the substance they belong to.

Tests used:
[1] = molecular target: VEGF (Homo sapiens) (UniProt P15692)
[2] = molecular target: VEGF (Homo sapiens) (UniProt P15692); remark: listed apart in the source
[3] = molecular target: VEGF (Homo sapiens) (UniProt P15692); remark: listed apart in the source

Chain of UniProt P15692 (P15692 whole entry): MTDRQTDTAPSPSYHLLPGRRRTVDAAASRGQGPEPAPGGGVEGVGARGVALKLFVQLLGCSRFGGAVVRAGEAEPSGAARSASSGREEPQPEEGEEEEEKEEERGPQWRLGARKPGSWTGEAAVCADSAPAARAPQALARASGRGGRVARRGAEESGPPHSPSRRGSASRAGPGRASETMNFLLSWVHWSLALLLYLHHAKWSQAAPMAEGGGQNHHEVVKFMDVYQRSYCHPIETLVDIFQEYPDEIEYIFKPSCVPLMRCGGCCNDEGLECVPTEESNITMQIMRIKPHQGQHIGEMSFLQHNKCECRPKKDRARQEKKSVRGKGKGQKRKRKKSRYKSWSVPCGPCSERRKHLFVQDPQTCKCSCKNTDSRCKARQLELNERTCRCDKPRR

Kd [1]: 3.1 µM
Substance: SY(SO3)DY(SO3)G peptide

Kd [2]: 0.91 µM
Substance: NH2-GGGG-SY(SO3)DY(SO3)GGGG-OH peptide

Kd [3]: 0.00033 µM
Substance: ATWLPPR peptide
